One molecule from patent publication US20260042815A1, “UNIVERSAL T CELLS AND COMPOSITIONS AND METHODS OF USE THEREOF” (The Trustees of the University of Pennsylvania, priority 2022, published 2026) can be followed below.

The experiment deals with stress ligands (MICA, MICB, ULBP 1-6) on K562 target cells. Put plainly: Stress ligand blocking on K562 target cells with soluble NKG2D protein. The settings on record: parental K562 and K878 targets, NK cells from two donors. The format is cell-based, human. The source says:
Soluble NKG2D protein was employed to block stress ligands (MICA, MICB, ULBP 1-6) on K562 target cells, which interfered with NKG2D mediated recognition of target cells.

B1: NKG2D protein: Soluble NKG2D protein employed to block stress ligands (MICA, MICB, ULBP 1-6) on K562 target cells (protein, UniProt P26718 73-216, looked up)
extracellular domain: IWSAVFLNSLFNQEVQIPLTESYCGPCPKNWICYKNNCYQFFDESKNWYESQASCMSQNASLLKVYSKEDQDLLKLVKSYHWMGLVHIPTNGSWQWEDGSILSPNLLTIIEMQKGDCALYASSFKGYIENCSTPNTYICMQRTV
modifications: extracellular domain
For B1, the “Effect on target cell recognition by NK cells” value is “minimal efficacy”.
